Results taken from patent US20190211099A1 (KING S COLLEGE LONDON, published 2019).

Biological target: T1, MUC1 carrying sialylated Core-1 glycans expressed by the breast cancer cell line T47D (UniProt P15941 24-1255, limits assumed, O-linked sialylated Core-1 glycans)
T1 construct: whole, on cells; also called MUC1-ST on T47D cells; T47D cells (MUC1-ST+ve)
Assay: staining of FFPE T47D cells with human Siglec-9 IgG fusion, DAB

T1 sequence (P15941 24-1255 limits assumed, stated change not applied): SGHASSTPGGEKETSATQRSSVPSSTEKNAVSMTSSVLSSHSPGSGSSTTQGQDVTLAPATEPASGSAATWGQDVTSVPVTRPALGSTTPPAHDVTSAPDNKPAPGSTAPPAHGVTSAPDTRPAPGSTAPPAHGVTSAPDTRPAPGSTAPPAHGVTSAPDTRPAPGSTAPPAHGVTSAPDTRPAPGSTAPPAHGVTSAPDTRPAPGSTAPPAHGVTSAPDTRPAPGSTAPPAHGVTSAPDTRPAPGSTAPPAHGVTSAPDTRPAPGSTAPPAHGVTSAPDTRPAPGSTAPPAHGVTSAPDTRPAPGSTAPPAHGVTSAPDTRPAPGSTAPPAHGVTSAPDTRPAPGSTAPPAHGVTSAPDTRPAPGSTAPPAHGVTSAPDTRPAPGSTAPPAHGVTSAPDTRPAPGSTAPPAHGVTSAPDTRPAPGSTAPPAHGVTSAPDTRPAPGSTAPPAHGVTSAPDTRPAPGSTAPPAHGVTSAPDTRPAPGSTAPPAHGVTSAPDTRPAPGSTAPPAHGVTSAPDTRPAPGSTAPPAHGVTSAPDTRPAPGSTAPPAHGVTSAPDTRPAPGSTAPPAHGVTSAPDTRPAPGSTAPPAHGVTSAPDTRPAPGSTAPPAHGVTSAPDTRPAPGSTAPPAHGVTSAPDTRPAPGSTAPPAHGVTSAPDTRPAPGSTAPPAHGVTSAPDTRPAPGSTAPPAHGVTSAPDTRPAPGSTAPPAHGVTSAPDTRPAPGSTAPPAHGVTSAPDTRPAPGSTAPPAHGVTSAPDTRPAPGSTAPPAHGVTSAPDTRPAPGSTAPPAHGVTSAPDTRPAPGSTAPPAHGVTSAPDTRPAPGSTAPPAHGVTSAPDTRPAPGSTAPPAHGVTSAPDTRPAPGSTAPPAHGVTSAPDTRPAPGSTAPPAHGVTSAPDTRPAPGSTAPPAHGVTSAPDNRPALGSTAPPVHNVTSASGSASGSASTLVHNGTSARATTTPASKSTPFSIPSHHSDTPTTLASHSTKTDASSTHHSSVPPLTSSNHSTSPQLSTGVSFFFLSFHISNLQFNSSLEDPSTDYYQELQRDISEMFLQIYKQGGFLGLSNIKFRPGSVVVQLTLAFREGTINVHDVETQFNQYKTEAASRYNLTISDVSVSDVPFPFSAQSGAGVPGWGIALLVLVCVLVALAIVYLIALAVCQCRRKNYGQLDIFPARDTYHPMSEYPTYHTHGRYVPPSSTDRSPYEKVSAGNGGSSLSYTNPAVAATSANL

B1: Recombinant human Siglec-9 fusion protein (Fc fusion)
chain: TSKLLTMQSSVTVQEGLCVHVPCSFSYPSHGWIYPGPVVHGYWFREGANTDQDAPVATNNPARAVWEETRDRFHLLGDPHTKNCTLSIRDARRSDAGRYFFRMEKGSIKWNYKHHRLSVNVTALTHRPNILIPGTLESGCPQNLTCSVPWACEQGTPPMISWIGTSVSPLDPSTTRSSVLTLIPQPQDHGTSLTCQVTFPGASVTTNKTVHLNVSYPPQNLTMTVFQGDGTVSTVLGNGSSLSLPEGQSLRLVCAVDAVDSNPPARLSLSWRGLTLCPSQPSNPGVLELPWVHLRDAAEFTCRAQNPLGSQQVYLNVSLQSKATSGVTQG
notes: also called human Siglec-9 IgG fusion; recombinant Siglec 9; not shown: human IgG part of the fusion (captured with mouse anti human IgG)
**Q.** Does B1 bind?
**A.** Result: binds
